Test results published in article PMC2841503 (Molecular cell, 2010).

Target: yeast ubiquitin (yeast, UniProt P0CG63 1-76)
Assay: NMR titration

yeast ubiquitin, sequence (P0CG63 1-76): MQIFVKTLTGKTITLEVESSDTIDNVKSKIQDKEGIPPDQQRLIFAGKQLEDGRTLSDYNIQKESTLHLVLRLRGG

binding result: binds
B1: S. cerevisiae Rev1 UBM2 (residues 804-857), GB1-fusion protein (domain or fragment, UniProt P12689 804-857, looked up)
chain: LEVNDLPSTMEEQFMNELPTQIRAEVRHDLRIQKKIQQTKLGNLQEKIKRREES
